Sequences and labels used below:
B1: human CHIP-TPR (residues 21-154) [human] / biotin-GSGSGP(pT)IEEVD [modified: biotin, printed before the first residue; phosphothreonine (pT; Thr636 in HSPA1A numbering); biotin, printed before the first residue; phosphothreonine (pT; … (parent complex)
chain 1: EKSPSAQELKEQGNRLFVGRKYPEAAACYGRAITRNPLVAVYYTNRALCYLKMQQHEQALADCRRALELDGQSVKAHFFLGQCQLEMESYDEAIANLQRAYSLAKEQRLNFGDDIPSALRIAKKKRWNSIEERR
chain 2: GSGSGPTIEEVD

For orientation: Kd means the concentration at which binding is half-saturated.

The variants in this assay derive from B1. The experiment in a line: biolayer interferometry; read off a plot.
As to chain 1 N45S, the Kd was around 6.6 µM.
The same measure for chain 1 G112S: around 1 µM.
